In assay [1] the target is T1, COMA complex (Ctf19/Okp1/Mcm21/Ame1) (S. cerevisiae, UniProt P38313 1-324; P53298 1-406; Q02732 1-369; Q06675 1-368).
T1 construct: Ame1 (CENP-U ortholog); Okp1 (CENP-Q ortholog); Ctf19 (CENP-P ortholog); open reading frame amplified from yeast genomic DNA; Mcm21 (CENP-O ortholog); The two heterodimers m7 and m12 together; copies: + + +
As to the kind of experiment: cross-linking; Sli15-2xStrep-HA-6xHis/Ipl1 with Ame1/Okp1 and Ctf19/Mcm21 assembled on Strep-Tactin agarose (RT, 1 hr; 50 mM NaH2PO4 pH 8.0, 500 mM NaCl, 5% glycerol), eluted with biotin, re-isolated on Ni-NTA beads; BS3 0.25–0.5 mM, 30°C, 30 min; LC-MS/MS, xQuest. As to conditions: both partners purified.

In assay [2] the target is T1, COMA complex (Ctf19/Okp1/Mcm21/Ame1). Description: pull-down; Sli15-2xStrep-HA-6xHis/Ipl1 immobilised on Strep-Tactin Superflow agarose, 2-fold molar excess of the partners; 50 mM NaH2PO4 pH 8, 120 mM NaCl, 5% glycerol, 4°C, 1 hr; SDS-PAGE and Coomassie. As to conditions: both partners purified.

T1 sequence (P38313 whole entry, chain 1 of 4): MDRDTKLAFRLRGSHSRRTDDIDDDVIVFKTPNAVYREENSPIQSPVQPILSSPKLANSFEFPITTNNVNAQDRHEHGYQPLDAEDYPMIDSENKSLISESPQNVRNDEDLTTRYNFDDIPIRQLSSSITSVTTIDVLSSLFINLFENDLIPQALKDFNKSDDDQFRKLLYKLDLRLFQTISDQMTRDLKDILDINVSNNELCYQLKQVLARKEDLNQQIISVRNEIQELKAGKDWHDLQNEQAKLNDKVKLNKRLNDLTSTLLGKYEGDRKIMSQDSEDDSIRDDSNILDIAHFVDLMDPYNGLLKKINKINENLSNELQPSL
T1 sequence (P53298 whole entry, chain 2 of 4): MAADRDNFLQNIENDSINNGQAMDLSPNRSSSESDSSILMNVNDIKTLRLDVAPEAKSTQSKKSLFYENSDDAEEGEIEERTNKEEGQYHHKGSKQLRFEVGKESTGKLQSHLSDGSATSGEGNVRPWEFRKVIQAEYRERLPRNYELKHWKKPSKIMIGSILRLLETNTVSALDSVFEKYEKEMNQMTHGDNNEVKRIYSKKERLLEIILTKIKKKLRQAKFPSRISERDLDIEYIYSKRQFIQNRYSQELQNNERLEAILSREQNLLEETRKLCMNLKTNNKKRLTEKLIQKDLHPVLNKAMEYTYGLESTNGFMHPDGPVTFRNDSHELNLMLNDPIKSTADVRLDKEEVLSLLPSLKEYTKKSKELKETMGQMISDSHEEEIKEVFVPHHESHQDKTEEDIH
T1 sequence (Q02732 whole entry, chain 3 of 4): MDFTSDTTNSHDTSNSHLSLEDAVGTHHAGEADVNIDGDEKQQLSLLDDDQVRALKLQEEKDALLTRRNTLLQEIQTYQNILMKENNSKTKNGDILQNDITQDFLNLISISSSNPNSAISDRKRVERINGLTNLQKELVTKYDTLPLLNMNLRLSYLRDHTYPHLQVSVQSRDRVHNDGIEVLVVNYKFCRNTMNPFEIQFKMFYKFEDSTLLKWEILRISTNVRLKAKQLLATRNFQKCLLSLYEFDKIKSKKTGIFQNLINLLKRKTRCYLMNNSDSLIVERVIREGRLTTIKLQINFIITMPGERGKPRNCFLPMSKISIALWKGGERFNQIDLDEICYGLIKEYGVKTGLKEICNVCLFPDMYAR
T1 sequence (Q06675 whole entry, chain 4 of 4): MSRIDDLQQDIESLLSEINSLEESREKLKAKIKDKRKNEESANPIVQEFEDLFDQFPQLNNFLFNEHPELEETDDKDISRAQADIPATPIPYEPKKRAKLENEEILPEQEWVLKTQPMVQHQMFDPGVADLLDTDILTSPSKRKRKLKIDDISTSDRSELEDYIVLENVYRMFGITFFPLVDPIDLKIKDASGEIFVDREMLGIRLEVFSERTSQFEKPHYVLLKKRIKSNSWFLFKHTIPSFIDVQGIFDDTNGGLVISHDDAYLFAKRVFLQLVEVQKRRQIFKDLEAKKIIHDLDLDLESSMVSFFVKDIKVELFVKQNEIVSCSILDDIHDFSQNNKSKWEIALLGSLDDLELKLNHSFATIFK

B1: Sli15/Ipl1 core chromosomal passenger complex (complex, S. cerevisiae)
chain 1: MDWAIKAARKKTQRKPGSTRSIIETLDDLNNLTTDAHSEINQRLYESSEWLRNNVYMNTLKYEDKKMEESLISPENTHNKMDVEFPKMKGEYELSNSQNDAAKDVTKTPRNGLHNDKSITPKSLRRKEVTEGMNRFSIHDTNKSPVEPLNSVKVDANESEKSSPWSPYKVEKVLRESSKTSESPINTKRFDNQTWAAKEEMENEPILQALKKAESVKVKPPPNSGIARSQRRSNMFVPLPNKDPLIIQHIPPTKSSGSIPKVRTVKESPIAFKKKSTINSPAIRAVENSDTAGSTKASSVFDRLSSIPTKSFENKISRGNVGHKYSSSSIDLTGSPMKKVSQKFKSINSTDTDMQEALRDIFSVKNKITKNNSPKGKNSRKSSIPRFDKTSLKLTTHKKLAIIAEQKKKSKHSSDVHKTGSRPHSISPTKISVDSSSPSKEVKNYYQSPVRGYLRPTKASISPNKNKNLTTSQTPHRLKIKEKTLRKLSPNIADISKPESRKSKNYRLTNLQLLPPAEAERDDLKKKFDKRLSGIMRSQQEHHRRKQEKQKRMSHLEQDLKKQTSFSNDYKDIRLKESLAPFDNHVRDTINKNTAFSTDNILATINTVDHREIIGNVTPKIASVNDSLPEINTDSEDEASVTLAAWAKSPYLQEQLIRQQDINPQTIFGPIPPLHTDEIFPNPRLNRLKPRQIVPKRS
chain 2: MQRNSLVNIKLNANSPSKKTTTRPNTSRINKPWRISHSPQQRNPNSKIPSPVREKLNRLPVNNKKFLDMESSKIPSPIRKATSSKMIHENKKLPKFKSLSLDDFELGKKLGKGKFGKVYCVRHRSTGYICALKVMEKEEIIKYNLQKQFRREVEIQTSLNHPNLTKSYGYFHDEKRVYLLMEYLVNGEMYKLLRLHGPFNDILASDYIYQIANALDYMHKKNIIHRDIKPENILIGFNNVIKLTDFGWSIINPPENRRKTVCGTIDYLSPEMVESREYDHTIDAWALGVLAFELLTGAPPFEEEMKDTTYKRIAALDIKMPSNISQDAQDLILKLLKYDPKDRMRLGDVKMHPWILRNKPFWENKRL
notes: Sli15 (INCENP ortholog), wild type; open reading frame amplified from yeast genomic DNA; Ipl1 (Aurora B ortholog); also called Sli15-2xStrep/Ipl1; Sli15-2xStrep-HA-6xHis/Ipl1; source: High Five insect cells (baculovirus), purified (Strep-Tactin Superflow agarose); not shown: 2xStrep, C-terminal, kept; HA, C-terminal, kept; 6xHis, C-terminal, kept
For the molecule B1, the binding result in assay [1] is given as “binds”.

B2: dephosphorylated Sli15/Ipl1 (complex, S. cerevisiae)
chain 1: MDWAIKAARKKTQRKPGSTRSIIETLDDLNNLTTDAHSEINQRLYESSEWLRNNVYMNTLKYEDKKMEESLISPENTHNKMDVEFPKMKGEYELSNSQNDAAKDVTKTPRNGLHNDKSITPKSLRRKEVTEGMNRFSIHDTNKSPVEPLNSVKVDANESEKSSPWSPYKVEKVLRESSKTSESPINTKRFDNQTWAAKEEMENEPILQALKKAESVKVKPPPNSGIARSQRRSNMFVPLPNKDPLIIQHIPPTKSSGSIPKVRTVKESPIAFKKKSTINSPAIRAVENSDTAGSTKASSVFDRLSSIPTKSFENKISRGNVGHKYSSSSIDLTGSPMKKVSQKFKSINSTDTDMQEALRDIFSVKNKITKNNSPKGKNSRKSSIPRFDKTSLKLTTHKKLAIIAEQKKKSKHSSDVHKTGSRPHSISPTKISVDSSSPSKEVKNYYQSPVRGYLRPTKASISPNKNKNLTTSQTPHRLKIKEKTLRKLSPNIADISKPESRKSKNYRLTNLQLLPPAEAERDDLKKKFDKRLSGIMRSQQEHHRRKQEKQKRMSHLEQDLKKQTSFSNDYKDIRLKESLAPFDNHVRDTINKNTAFSTDNILATINTVDHREIIGNVTPKIASVNDSLPEINTDSEDEASVTLAAWAKSPYLQEQLIRQQDINPQTIFGPIPPLHTDEIFPNPRLNRLKPRQIVPKRS
chain 2: MQRNSLVNIKLNANSPSKKTTTRPNTSRINKPWRISHSPQQRNPNSKIPSPVREKLNRLPVNNKKFLDMESSKIPSPIRKATSSKMIHENKKLPKFKSLSLDDFELGKKLGKGKFGKVYCVRHRSTGYICALKVMEKEEIIKYNLQKQFRREVEIQTSLNHPNLTKSYGYFHDEKRVYLLMEYLVNGEMYKLLRLHGPFNDILASDYIYQIANALDYMHKKNIIHRDIKPENILIGFNNVIKLTDFGWSIINPPENRRKTVCGTIDYLSPEMVESREYDHTIDAWALGVLAFELLTGAPPFEEEMKDTTYKRIAALDIKMPSNISQDAQDLILKLLKYDPKDRMRLGDVKMHPWILRNKPFWENKRL
modifications: basal phosphorylation removed with lambda phosphatase | basal phosphorylation removed with lambda phosphatase
notes: Sli15 (INCENP ortholog); open reading frame amplified from yeast genomic DNA; Ipl1 (Aurora B ortholog); also called Sli15/Ipl1 (dp); not shown: 2xStrep, C-terminal, kept; HA, C-terminal, kept; 6xHis, C-terminal, kept
B2: the binding result in assay [2] is listed as “binds”.

These data come from publication PMC6546395 (eLife, 2019).
